In the RNAGym collection of RNA variant scans (doi:10.1073/pnas.2313332121):
This sample holds only a part of the variants without activity.

B1: TPR 5TU (parent)
chain: GGAUCUUCUCGAUCUAACAAAAAAGACAAAUCUGCCACAAAGCUUGAGAGCAUCUUCGGAUGCAGAGGCGGCAGCCUUCGGUGGCGCGAUAGCGCCAACGUUCUCAACUAUGACACGCAAAACGCGUGCUCCGUUGAAUGGAGUUUAUCAUG

Variants of: B1
Experiment: polymerase ribozyme fitness, log enrichment relative to wild type (log ratio); higher = more active; in vitro selection for triplet polymerase activity
Outline: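 Each subunit of a heterodimeric triplet polymerase ribozyme was mutagenized into a library by PCR, transcribed, and subjected to one round of in vitro selection, run in triplicate. Libraries were annealed with a biotinylated primer, the partner subunit and triplets, incubated frozen at −7 °C, and extended constructs were gel-excised, captured on streptavidin beads and recovered by RT-PCR. Input and output libraries were sequenced on Illumina, keeping genotypes with ≥10 input reads and ≥1 read per output. Fitness is log base 2 of genotype enrichment divided by wild-type enrichment, from inverse-variance-weighted replicate averages.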

Variant	polymerase ribozyme fitness (log ratio)
GGAUGUUCUCGAUCUAGCAAAAAAGCCAAAUCUGCCACAUAGCUUGAGAGCAUCUUCGGAUGCAGAGGCGGCAGCCUUCGGGGGCGUGAUAGCGCCAACGUUCUCAACUAUGACACGGAAAACGCGUGAUACGUUGAAUGCAGUUUAUCAUG [C5G A17G A26C A40U U82G C87U C118G C129A C131A G141C]	≤ -4.2
GGAUCUUCUCGAUCUAACAAAAAAGACAAAUCUGCCACAAAGCUUGAGAGCAUCUUCGGAUGCAGAGGCGGCAGCCUUCGGUGGCGCGAUAGCGCCAACGUCCUCAACUAUGACACGCAAAACGCGUGCUCCGUUGAAUGGAGUUUACCAUG [U102C U148C]	-3.19
GGAUCUUCUCGAUCUAACAAAAAAGACAAAUCUGCCACAAAGCUUGAGCGCAUUUUCGGAUGCAGAGGCGGCAGCCUUCGGUGGCGCGAUAGCGCCAACGUUCUCAACUAUGACACGCAAAACGCGUGCUCCGUUGAAUGGAGUUUAUCAUG [A49C C54U]	≤ -4.2
GGAUCUUCUCGAUCUAACAAUUAAGACAAAUCUGCCACAAAACUUGAGAGCAUCUUCGGAUGCAGAGGCCGCAGCCUUCGGUGGCGCGAUAGUGCCAACGUUCUCAACUAUGACACGCAAAACGCGUGCUCCGUUGAAUCGAGUUUAUCAUU [A21U A22U G42A G70C C93U G140C G152U]	≤ -4.2
GGAUCUUCUCGAUCUAACAAAAAAGACAAAUCUGCCACAAAGCUUGAGAGCAUCUUCCGAUGCAGAGGCGGCAGCCUUCGGUGGCGCGAUAGCGCCAACGUUCUCAACUAUGACACGCAAAGCGCGUGCUCCGUUGAAUGGAGUUUAUCCUG [G58C A122G A150C]	-3.46
GGAUCUUCUCGAUCUAACAAAAAAGACGAAUCUGCCACAAAGUUUGAGAGCAUCUUCGGAUGCAGAGGCGGCAGCCUUCGGUGGCGCGAUAGCGCCAACGUUCUCAACUAUGUCACACAAAACGCGUGCUCCGUUGAGUGGAGUUUAUCAUG [A28G C43U A113U G117A A138G]	≤ -4.2
GGAUCUUCUCGAUCUAACAAAAAAGACAAAUCUGCCACAAAGCUUGAGAGCAUCUUCAGAUGCAGAGGCGGCAGCCUUCGGUGGCGCGAUAGCGCCAACGUUAUCAACUAUGACACGCAAAACGCGUGCUCCGUUGAAUGGAGUUUAUCAUG [G58A C103A]	-1.19
GGAUCUUCUCGAUCUAACAAAAAAGACAAAUCUGCCACAAACCUUGAGAGCAUCUUCGGGUGCAGAGGCGGCAGCCUUCGGUGGCGCGAUAGCGCCAACGUUCUCAACUAUGACACGCAAAACGCGUGCUCCGUUGAAUGGAGUUUAUCAUG [G42C A60G]	-4.05
GGAUCUUCUCGAUCUAACAAAAAAGACAAAUCUGCCACAAAGCUUGAGAGCAUCUUCGGAUGCAGAGGCGGCAGCCUUCGGUGGUGCGAUAGCGCCAACGUUCUCAACUAUGACACGCAAAACGCGUGCUCCGUUGAAUGGAGUAUAUCAUG [C85U U145A]	-0.468
GGAUCUCCUCGAUCUAACAAAAAAGAUAAAUCUGCCACAAAGCUUGAGCGCGUCUUCGGAUGCAGAGGCGGCAGCCUUAGGUGGCGGGAUAGGGCAUAUGUUCUCAAUUAUGACACGCAUAACGCGUGCUCCGUUGAAUGGAGUUUAUCAUG [U7C C27U A49C A52G C79A C87G C93G C96A A97U C99U C108U A120U]	-4.18
GGAUCUUCUCGAUCUAGCUAAAAAGACAAAUCUGCCACAAAGCUUGAGAGCAUCUUCGGAUGCAGAGGCGGCAGCCUUCGGUGGCGCGAUAGUGCCAACGUCCUCAACUAUGACACGCAAAACGCGUGCUCCGUUAAAUGGAGUUUAACAUG [A17G A19U C93U U102C G136A U148A]	≤ -4.2
GGAUCUUCUCGAUCUAACAAAAAAGACAAAUCUGCCACAAAGCUUGAGAGCAACUUCGGAUGCAGAGGCGGCAGCCUUCGCUGGCGUGAUAGCGCCAACGUUCUCAACUAUGACACGCAAAAAGCGUGCUCCGUUGAAUGGAGUUUAUCAUG [U53A G81C C87U C123A]	-1.74
GGAUCUUCUCGAUCUAACAAAAAAGACAAAUCUGCCACAAAGCUUGAGAGCAUCUUCGUAUGCAGAGGCGGCAGCCUUCGGUGGCGCGAUAGCGCCAACGUUCUCAACUAUGACACGCAAAACGCGUGCUCCGUUGAAUGGAGUUUAGCAUG [G59U U148G]	-3.83
GGAUCUUCUCGAUCUAACAAAAAAGACAAAUCUGCCACAAAGCUUGAGAGCAUCUACAGAUGCAGAGGCGGCAGCUUUCGGUGGCGCGAUAGCGCCAACGUUCUCAACUAUGACACGCAAAAUGGGUGCUCCGUUGAAUGGAAUUUAUCAUG [U56A G58A C76U C123U C125G G143A]	0.457
GGAUCUUCUCGAUCUAACAAAAAAGACAAAUCUGCCACAAAGCUUGAGAGCAUCUUCGGAUGCAGAGGCGGCAGCCUUCGGUGGAGCGAUAGCGCCAACGUUCUCAACUAUGACACGCAAAACGCGUGCUCCUUUGAAUGGAGUUUAUCAUG [C85A G133U]	≤ -4.2
GGAUCUUCUCGCUCUAACAAAAAAGACAAAUCUGCCACAAAGCUUGAGAGCAACUUCUGAUGCAGAGGCGGCAGCCUUCGGUGGCGCGAUAGCGCCAAGGUUCUCAACUAUGACACGCAAAACGCGUGCUCCGUUGAAUGGAGUUUAUCACG [A12C U53A G58U C99G U151C]	≤ -4.2
GGAUCUUCUCGGUCUAACAAAAAAGACAAAUCUGCCACAAAGCUUGAGAGCAUCUACGGAUGCAGAGGCGGCAGCAUUCGGUGGCGCGAUAGCGCCAACGUUCUCAACUAUGACACGCAAAACGCGUGCUCCGUUGAAUGGAUUUUAUCAUG [A12G U56A C76A G143U]	-3.46
GGAUCUUCUCGAUCUUACAAAAAUGAUAAAUCUGCCACUAAGCUUGAGAGCAUCAUCGGAUGCAGAGGCGGCAGCAUUCGGUGGCGCGAUAGCGCCAACGUUCUCAACUAUGACACGCAAAACGCGUGCUCCGUUGAAUGGAGUUUAUCAUG [A16U A24U C27U A39U U55A C76A]	≤ -4.2
GGAUCUUCUCGAUCUAACAAAAAAGACAAAUCUGCCACAAAGCUUGAGAGCAUCUUCGGAUGCAGAGGCGGCAGCCUUCGGUGGCGCGAUAGCGCCAACGUUCUCAACUAUGACACGCUAAACGCGUGUUCCGUUGAAUGGAGUUUAUCAUG [A119U C129U]	0.265
